What all share (assay): luminescence complementation titration, one-site specific binding
Assay [1] has as its target T1, NLpoly11S.
T1 chain: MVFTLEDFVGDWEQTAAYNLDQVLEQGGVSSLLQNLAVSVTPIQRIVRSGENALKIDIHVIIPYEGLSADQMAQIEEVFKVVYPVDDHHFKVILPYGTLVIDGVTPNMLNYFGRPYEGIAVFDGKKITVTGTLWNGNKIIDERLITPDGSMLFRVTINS

In assay [2] the target is T1, NLpoly11S.
The target of assay [3] is T1, NLpoly11S.

The values below come from patent publication US20200292534A1 (published 2020).

Where two headings read alike, the source gives them in different places.

In general, Kd refers to a measure of binding affinity in units of concentration. In the assay with NLpoly11S [1], MNVSGWRLFKKISN (other) [NLpep78-HaloTag] showed a Kd of 30.2 nM. VTGYRLFEEIL [NLpep114] came in with a Kd with NLpoly11S [2] of 199000 nM. In turn, MNVTGYRLFKKISN (other) [NLpep79-HaloTag] registered a dissociation constant Kd with NLpoly11S [3] of 22.9 nM. As to GVTGWRLCERILA [NLpep1], binding with NLpoly11S [2] was put at a Kd of 2460 nM. In other words, the single-digit micromolar range. As to NVSGWRLFKKISN (other) [HaloTag-NLPep78], binding with NLpoly11S [1] was put at a Kd of 7.21 nM. This counts as single-digit nanomolar. In turn, NVTGYRLFKKISN (other) [HaloTag-NLPep79] came in with a dissociation constant (Kd) in the assay with NLpoly11S [3] of 33.9 nM. This counts as double-digit nanomolar.
